The target of assay [1] is Human Beta-Amyloid (1-40) (human). Description: cell-based or functional assay.
The target of assay [2] is Recombinant TTR variant TTR_S52P. As to the kind of experiment: cell-based or functional assay.
The target of assay [3] is Recombinant β2-microglobulin variant β2m_D76N (Pongo pygmaeus (Bornean orangutan)) (UniProt P16213). Description: cell-based or functional assay.
The target in assay [4] is Recombinant β2-microglobulin variant β2m_ΔN6 (Pongo pygmaeus (Bornean orangutan)) (UniProt P16213). Description: cell-based or functional assay.
In assay [5] the target is Truncated amyloidogenic form of Serum Amyloid A, SAA(1-76) (Homo sapiens (Human)) (UniProt P0DJI8). As to the kind of experiment: cell-based or functional assay.
Assay [6] concerns the target Human Beta-Amyloid (1-40) (human). As to the kind of experiment: SPR (ProteOn), Amyposomes flowed over immobilised fibrils; concentration as exposed PA; Aβ1-40 fibrils.
Assay [7] addresses Recombinant TTR variant TTR_S52P. Description: SPR (ProteOn), Amyposomes flowed over immobilised aggregates; concentration as exposed PA; TTR aggregates.

Human Beta-Amyloid (1-40) (human), sequence (peptide, as listed by the source): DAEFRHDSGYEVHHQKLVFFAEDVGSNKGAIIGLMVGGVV
UniProt P0DJI8, sequence (P0DJI8 other isoform, or with tags, fused parts or gaps limits assumed): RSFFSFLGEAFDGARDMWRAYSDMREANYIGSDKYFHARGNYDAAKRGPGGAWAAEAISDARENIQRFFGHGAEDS

The term Kd denotes the concentration at which binding is half-saturated. In assay [1], “Amyposomes (liposomes composed of sphingomyelin/cholesterol, functionalized with phosphatidic acid and with mApoE peptide covalently linked to the outer surface)” displayed a ThT fluorescence, residual aggregates after 24 h, peptide:Amyposomes 1:50 of 40% and a ThT fluorescence, residual aggregates after 5 days, peptide:Amyposomes 1:50 of 10%. For the same substance, in assay [2], the ThT fluorescence, aggregation with respect to protein alone, TTR:Amyposomes 1:50 turned out to be 40% and the ThT fluorescence, residual aggregates after 5 h, TTR:Amyposomes 1:50 worked out at 5%. In addition, in assay [3], the ThT fluorescence, final aggregation extent with respect to protein alone, D76N:Amyposomes 1:50 was 36%; the ThT fluorescence, residual aggregates after 3 days, protein:Amyposomes 1:30 and 1:50 is 15%. Further, in assay [4], the ThT fluorescence, aggregation extent with respect to protein alone, protein:Amyposomes 1:50 was 20% and the ThT fluorescence, residual aggregates, protein:Amyposomes 1:50 worked out at 50%. This substance also came in with a ThT fluorescence, residual aggregates after 72 h, protein:Amyposomes 1:50 in assay [5] of 30%. The same substance displayed a Kd in assay [6] of 0.12 µM. For the same substance, in assay [7], the equilibrium dissociation constant (Kd) was 14.2 µM.
